Assay results from patent US20190083609A1, “TOFACITINIB AS VACCINATION IMMUNE MODULATOR” (HELMOLTZ ZENTRUM MÜNCHEN - DEUTSCHES FORSCHUNGSZENTRUM FÜR …, priority 2016, published 2019).

Tests used:
[1] = test system: T cells (total splenocytes from wild type mice); test: T cell stimulation in cell culture (viable cells by CellTiter-Glo); assay type: cell-based, mouse; settings: Tofacitinib 50, 150, 500 ng/ml; IL-2/anti-CD3 low and high stimulation; 4 days
Method: (§2) For the T and B cell stimulation spleen cell from wild type mice were isolated and cells were cultivated in 200 μl/well in RPMI complete in cell culture plates (100,000 cells/well). For T cell stimulation total splenocytes were incubated 4 days with 1 ng/ml II-2 and 1 pg/ml anti-CD3 (Low) or 5 ng/ml II-2 and 10 pg/ml anti-CD3 (High) and three varying concentrations of Tofacitinib 50 ng/ml, 150 ng/ml and 500 ng/ml. For B cell stimulation cells were stimulated 8 days by incubation with 1 pg/ml anti-CD40 and 1L4 1 ng/ml (Low) and with 1 pg/ml anti-CD40 and 5 ng/ml (High) and three varying concentrations of Tofacitinib 50 ng/ml, 150 ng/ml and 500 ng/ml. The number of viable cells was determined by CellTiter-Glo Assay (Promega) and IgE concentration in the supernatant was measured by ELISA.

[2] = test system: B cells (spleen cells from wild type mice); test: B cell stimulation in cell culture (CellTiter-Glo; IgE ELISA of supernatant); assay type: cell-based, mouse; settings: Tofacitinib 50, 150, 500 ng/ml, 8 days
Method: as §2

human naive CD4+ T cells = test: Differentiation of human naive CD4+ T cells into FOXP3+ CD4+ T cells (flow cytometry); assay type: cell-based; settings: for increase of the percentage of FOXP3 expressing cells: average of 3 donors versus polarization control; for FOXP3 producing cells within the living CD4+ T cell population: range of 3 donors, control 17.7-43.6%, 5 days
Method: For the differentiation of human naive CD4^+ T cells into FOXP3^+ CD4^+ T cells, human peripheral blood mononuclear cells were isolated from heparinized whole blood by standard density gradient centrifugation (Lymphoprep, Axis Shield, Oslo, Norway). Naive CD4^+ T cells were isolated using the Naive CD4^+ T cell Kit II (Miltenyi Biotec, Bergisch Gladbach, Germany) and by additional depletion of CD45RO^+ cells (CD45RO microbeads, Miltenyi Biotec). Cells were cultured in RPMI 1640 (Thermo Fisher Scientific, Waltham, Mass. USA) complete (10% FCS, Biochrom, Merck, Berlin, Germany; 2 mM L-glutamine, 100 U/mL Penicillin/Streptomycin, Thermo Fisher Scientific) in 24-well plates at a concentration of 1×10^6 cells/mL at 37° C. After isolation, cells were stimulated with plate-bound anti-CD3 (10 μg/mL; clone UCHT1, BD Biosciences) and 2 μg/mL anti-CD28 (clone CD28.2, BD Biosciences, 2 μg/mL) in solution and cultured for five days. To induce FOXP3 expression, the culture medium was supplemented with 50 U/mL rIL-2 (Novartis, Nurnberg, Germany) and 5 ng/mL TGF-01 (Promokine). Beneath this control, cells were cultured in the presence of different concentrations of Tofacitinib, Rapamycin (Sigma-Aldrich) and Cyclosporine A (Sigma-Aldrich). After three days of culture, half of the medium was removed and replaced by fresh RPMI 1640 complete, supplemented with the same doses of cytokines and agents as at day 0.
After five days of culture, the cells were washed with ice-cold PBS and stained with LIVE/DEAD Fixable Aqua Dead Cell Stain Kit (Thermo Fisher Scientific) according to the manufacturer's protocol. Moreover the cells were stained 1:300 with anti-CD4-Alexa Flour700 (BioLegend) and 1:100 with anti-FOXP3-eFlour450 (eBiosciences, affymetrix, Frankfurt am Main, Germany) by using the FOXP3/Transcription Factor Staining Buffer Set (eBiosciences, affymetrix) according to manufacturer's protocol. The acquisition of cells was performed with BD FACSDIVA 7.0 on a BD
LSR Fortessa (BD Biosciences). Data were analyzed with the software FlowJo (Tree Star, Ashland, Oreg.), the lymphocyte population was gated on CD4^+ cells and dead cells were excluded from the analysis.

[3] = humans; cited from earlier work
OVA-allergic mice [4] = test: BAL cell infiltration by flow cytometry in OVA allergic airway inflammation / ASIT model; assay type: in vivo, mouse
Method: For allergic sensitization and allergen-challenge, mice were treated twice by intraperitoneal injection of […] OVA (chicken ovalbumin, Sigma, Germany) and 0.5 mg aluminum hydroxide (alum; 40 mg magnesium/40 mg alum per ml; inject® ThermoFischer, Rockford, USA) in 200 μl phosphate buffered saline (PBS) at day (D) 1 and D-7 as previously described (Aguilar-Pimentel J A, Alessandrini F, Huster K M, Jakob T, Schulz H, Behrendt H, et al. Specific CD8 T cells in IgE-mediated allergy correlate with allergen dose and allergic phenotype, Am J Respir Crit Care Med 2010; 181:7-16, and Fuchs H, Gailus-Durner V, Adler T, Aguilar-Pimentel J A, Becker L, Calzada-Wack J, et al. Mouse phenotyping, Methods 2011; 53:120-35). […]
Four experimental groups of mice each group consisting of 14 mice were analyzed in parallel (FIGS. 1 and 2): […]
Flow cytometry was performed to quantify cell surface markers of BAL cells using the following monoclonal antibodies: anti-CD8a, anti-Lytic, anti-CD4, anti-CD62L, anti-CD3, anti-CD25, anti- GO, anti-CD19, anti-CD11 b, anti-CD11 c, and anti-MHC-II (Fuchs H, Gailus-Durner V, Adler T, Aguilar-Pimentel J A, Becker L, Calzada-Wack J, et al. Mouse phenotyping, Methods 2011; 53:120-35). Data were acquired using a LSRII flow cytometer (BD Bioscience) and further analyzed with FACSDiVa (BD Bioscience) and Flowjo V.7.2.2 (Tree star, Ashland, USA) software. […]

OVA-allergic mice [5] = test: Plasma immunoglobulins (total IgE ELISA, IgG1 MSD) after challenge in OVA allergic airway inflammation / ASIT model; assay type: in vivo, mouse
Method: (§1) For allergic sensitization and allergen-challenge, mice were treated twice by intraperitoneal injection of […] OVA (chicken ovalbumin, Sigma, Germany) and 0.5 mg aluminum hydroxide (alum; 40 mg magnesium/40 mg alum per ml; inject® ThermoFischer, Rockford, USA) in 200 μl phosphate buffered saline (PBS) at day (D) 1 and D-7 as previously described (Aguilar-Pimentel J A, Alessandrini F, Huster K M, Jakob T, Schulz H, Behrendt H, et al. Specific CD8 T cells in IgE-mediated allergy correlate with allergen dose and allergic phenotype, Am J Respir Crit Care Med 2010; 181:7-16, and Fuchs H, Gailus-Durner V, Adler T, Aguilar-Pimentel J A, Becker L, Calzada-Wack J, et al. Mouse phenotyping, Methods 2011; 53:120-35). Subsequently, mice were challenged by inhalative exposure to OVA aerosol (1% in PBS) for 10 min once a day at D-49, 52 and 55. 24 h after the last challenge (D-56) blood samples were collected and animals sacrificed to obtain bronchoalveolar lavage (BAL) samples.
For allergen-specific-immunotherapy (ASIT), animals were treated by subcutaneous injection of 1 mg OVA D-22, and 0.5 mg OVA D-29. For treatment with Tofacitinib, two doses per day were administrated on D-20 to D-24, and D-27 to D-31. […]

OVA-allergic mice [6] = test: Cytokine profile in BAL fluid (MSD multiplex) in OVA allergic airway inflammation / ASIT model; assay type: in vivo, mouse
Method: as §1
For allergen-specific-immunotherapy (ASIT), animals were treated by subcutaneous injection of 1 mg OVA D-22, and 0.5 mg OVA D-29. For treatment with Tofacitinib, two doses per day were administrated on D-20 to D-24, and D-27 to D-31.
Flow cytometry was performed to quantify cell surface markers of BAL cells using the following monoclonal antibodies: anti-CD8a, anti-Lytic, anti-CD4, anti-CD62L, anti-CD3, anti-CD25, anti- GO, anti-CD19, anti-CD11 b, anti-CD11 c, and anti-MHC-II (Fuchs H, Gailus-Durner V, Adler T, Aguilar-Pimentel J A, Becker L, Calzada-Wack J, et al. Mouse phenotyping, Methods 2011; 53:120-35). Data were acquired using a LSRII flow cytometer (BD Bioscience) and further analyzed with FACSDiVa (BD Bioscience) and Flowjo V.7.2.2 (Tree star, Ashland, USA) software. Cytokines from BAL were analyzed by a multiplex measurement of proinflammatory cytokines from Meso Scale Discovery electrochemiluminescence assay (MSD, USA).

OVA-allergic mice [7] = test: Systemic (plasma) cytokine profile in OVA allergic airway inflammation / ASIT model; assay type: in vivo, mouse; settings: after OVA-aerosol challenge
Method: as §1, with “samples. […]” for “samples.”
Mouse blood samples were collected before and after challenge as previously described (Aguilar-Pimentel J A, Alessandrini F, Huster K M, Jakob T, Schulz H, Behrendt H, et al. Specific CD8 T cells in IgE-mediated allergy correlate with allergen dose and allergic phenotype, Am J Respir Crit Care Med 2010; 181:7-16; Fuchs H, Gailus-Durner V, Adler T, Aguilar-Pimentel J A, Becker L, Calzada-Wack J, et al. Mouse phenotyping, Methods 2011; 53:120-35 and Fulton R J, McDade R L, Smith P L, Kienker L J, Kettman J R, Jr. Advanced multiplexed analysis with the FlowMetrix system, Clin Chem 1997; 43:1749-56) by puncturing the retro-orbital plexus (Li-heparin-coated tubes, KADE, Numbrecht, Germany) under isoflurane anesthesia. […] Plasma total IgE was measured using a classical immunoassay isotope-specific sandwich ELISA. […] Signal intensities of labeled total murine IgE were measured at 450 nm in a standard microwell ELISA reader and results reported in ng/ml based on a standard curve of purified IgE. […]

C[C@@H]1CCN(C(=O)CC#N)C[C@@H]1N(C)c1ncnc2[nH]ccc12 [Tofacitinib, 3-((3R, 4R)-4-methyl-3-[methyl-(7H-pyrrolo[2,3-d]pyrimidin-4-yl)-amino]-piperidin-1-yl)-3-oxopropionitrile]
proliferation of T cells [1]: significantly decreased
proliferation of B cells ([2]; anti-CD40/IL4 low and high stimulation): significantly decreased
IgE production by B cells ([2]; anti-CD40/IL4 stimulation, supernatant ELISA): decreased
increase of the percentage of FOXP3 expressing cells (human naive CD4+ T cells; 0.1 μM): about 2.4 (+/−0.7) fold
FOXP3 producing cells within the living CD4+ T cell population (human naive CD4+ T cells; 0.1 μM): 57.2-77.1%
increase of the percentage of FOXP3 expressing cells (human naive CD4+ T cells; 1 μM): ~2.5 (+/−1.3) fold
FOXP3 producing cells within the living CD4+ T cell population (human naive CD4+ T cells; 1 μM): 51.1-70.6%
FOXP3-enhancing effect (human naive CD4+ T cells; 10 μM): diminished
cytotoxicity (human naive CD4+ T cells; 10 μM, data not shown): induced cytotoxicity
mean terminal plasma half-life [3]: 3.2 h

CO[C@H]1C[C@@H]2CC[C@@H](C)[C@@](O)(O2)C(=O)C(=O)N2CCCC[C@H]2C(=O)O[C@H]([C@H](C)C[C@@H]2CC[C@@H](O)[C@H](OC)C2)CC(=O)[C@H](C)/C=C(\C)[C@@H](O)[C@@H](OC)C(=O)[C@H](C)C[C@H](C)/C=C/C=C/C=C/1C [Rapamycin]
FOXP3 expression relative to control (human naive CD4+ T cells; concentration not given): 1.3 fold

B1: OVA-ASIT: allergen-specific immunotherapy: subcutaneous injection of chicken ovalbumin (OVA) in OVA-sensitized mice (protein, UniProt P01012 2-386, looked up)
Ovalbumin: GSIGAASMEFCFDVFKELKVHHANENIFYCPIAIMSALAMVYLGAKDSTRTQINKVVRFDKLPGFGDSIEAQCGTSVNVHSSLRDILNQITKPNDVYSFSLASRLYAEERYPILPEYLQCVKELYRGGLEPINFQTAADQARELINSWVESQTNGIIRNVLQPSSVDSQTAMVLVNAIVFKGLWEKAFKDEDTQAMPFRVTEQESKPVQMMYQIGLFRVASMASEKMKILELPFASGTMSMLVLLPDEVSGLEQLESIINFEKLTEWTSSNVMEERKIKVYLPRMKMEEKYNLTSVLMAMGITDVFSSSANLSGISSAESLKISQAVHAAHAEINEAGREVVGSAEAGVDAASVSEEFRADHPFLFCIKHIATNAVLFFGRCVSP
suppression of total broncho-alveolar lavage cell infiltration (OVA-allergic mice [4]; compared to OVA-allergic mice, BAL 24 h after last challenge (D-56)): 88%
eosinophil BAL cell infiltration (OVA-allergic mice [4]; median [1st, 3rd quantile], OVA-allergic mice 81%, BAL at D-56): 63.18%
total IgG1 levels (OVA-allergic mice [5]; median [quantiles], OVA-allergic mice 0.8267 mg/ml): 1.936 mg/mL
reduction of total IgE-levels (OVA-allergic mice [5]; versus OVA-allergic mice): 43.5%
IFN-γ in BAL fluid (OVA-allergic mice [6]; barely detectable): marginally reduced
IL-2 in BAL fluid (OVA-allergic mice [6]; barely detectable): marginally reduced
IL-5 secretion in BAL (OVA-allergic mice [6]; mouse, in vivo): increase
secretion of Th2-cytokine IL-4 in BAL (OVA-allergic mice [6]; mouse, in vivo): reduced
inhibition of IL-1 beta secretion in BAL fluid (OVA-allergic mice [6]; versus OVA-allergic mice): 80%
inhibition of IL-6 secretion in BAL fluid (OVA-allergic mice [6]; versus OVA-allergic mice): 82%
inhibition of TNF-a secretion in BAL fluid (OVA-allergic mice [6]; versus OVA-allergic mice): 84%
inhibition of chemokine CXCL1 in BAL fluid (OVA-allergic mice [6]; versus OVA-allergic mice): 21%
effects on IL-2 plasma levels (OVA-allergic mice [7]): no significant effects
inhibition of IL-1beta plasma levels (OVA-allergic mice [7]): 41%
reduction of IL-6 plasma levels (OVA-allergic mice [7]): 44%
